Test results: patent US20130337438A1 (JAPAN HEALTH SCIENCES FOUNDATION, published 2013)

Assays:
[1] = biological target: T1, HPV35 L1/L2-capsid (human papillomavirus type 35, UniProt P27234 1-469; P27232 1-502); test: ELISA on immobilized L1/L2-capsid
T1 construct: Capsid of co-expressed L1 and L2 from 293FT cells; The pseudovirus is the same capsid with a reporter plasmid; also called L1/L2-capsid of type 35; HPV35 pseudovirus
T1 sequence 1: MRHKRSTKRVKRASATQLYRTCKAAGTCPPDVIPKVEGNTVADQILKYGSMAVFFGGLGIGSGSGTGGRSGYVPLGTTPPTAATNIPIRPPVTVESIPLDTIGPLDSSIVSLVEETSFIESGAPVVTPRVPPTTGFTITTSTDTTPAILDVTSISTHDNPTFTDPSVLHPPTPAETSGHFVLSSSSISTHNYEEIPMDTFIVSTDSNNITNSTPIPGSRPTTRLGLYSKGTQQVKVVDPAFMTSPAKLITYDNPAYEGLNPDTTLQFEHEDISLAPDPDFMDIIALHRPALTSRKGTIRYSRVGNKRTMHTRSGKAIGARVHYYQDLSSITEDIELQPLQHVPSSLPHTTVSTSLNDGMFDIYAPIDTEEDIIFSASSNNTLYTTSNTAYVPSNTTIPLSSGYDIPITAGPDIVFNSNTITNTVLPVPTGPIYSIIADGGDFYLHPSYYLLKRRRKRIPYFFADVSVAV
T1 sequence 2: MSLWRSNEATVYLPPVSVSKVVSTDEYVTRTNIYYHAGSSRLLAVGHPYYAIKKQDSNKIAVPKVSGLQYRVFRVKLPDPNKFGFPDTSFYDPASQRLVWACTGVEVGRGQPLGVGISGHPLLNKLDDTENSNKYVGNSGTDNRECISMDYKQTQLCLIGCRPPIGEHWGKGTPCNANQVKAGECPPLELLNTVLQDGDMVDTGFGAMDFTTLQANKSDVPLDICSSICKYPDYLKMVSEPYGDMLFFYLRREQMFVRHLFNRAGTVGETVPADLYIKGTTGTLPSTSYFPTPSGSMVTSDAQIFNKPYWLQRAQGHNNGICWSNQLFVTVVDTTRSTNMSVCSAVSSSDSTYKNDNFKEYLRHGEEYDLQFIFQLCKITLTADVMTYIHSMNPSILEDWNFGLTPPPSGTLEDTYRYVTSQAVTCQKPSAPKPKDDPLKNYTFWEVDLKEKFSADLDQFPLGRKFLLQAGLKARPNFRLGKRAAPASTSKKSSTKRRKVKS

[2] = biological target: T2, HPV33 L1/L2-capsid (human papillomavirus type 33, UniProt P06418 1-467; P06416 1-499); test: ELISA on immobilized L1/L2-capsid, purified antibody 250 ng/well
T2 construct: Capsid of co-expressed L1 and L2 from 293FT cells; The pseudovirus is the same capsid with a reporter plasmid; also called L1/L2-capsid of type 33; HPV33 pseudovirus
T2 sequence 1: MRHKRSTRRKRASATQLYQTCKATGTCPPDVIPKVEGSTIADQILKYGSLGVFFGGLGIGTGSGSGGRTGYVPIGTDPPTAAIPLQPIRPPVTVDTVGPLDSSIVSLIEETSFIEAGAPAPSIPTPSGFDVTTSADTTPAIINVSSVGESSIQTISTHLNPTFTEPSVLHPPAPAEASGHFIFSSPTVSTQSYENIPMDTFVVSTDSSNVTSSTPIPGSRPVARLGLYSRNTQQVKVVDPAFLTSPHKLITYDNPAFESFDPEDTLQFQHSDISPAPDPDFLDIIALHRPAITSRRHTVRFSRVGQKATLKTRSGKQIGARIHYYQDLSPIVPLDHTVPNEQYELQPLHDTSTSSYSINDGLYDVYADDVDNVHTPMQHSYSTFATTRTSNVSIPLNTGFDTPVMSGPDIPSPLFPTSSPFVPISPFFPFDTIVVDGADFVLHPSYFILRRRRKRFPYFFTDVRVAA
T2 sequence 2: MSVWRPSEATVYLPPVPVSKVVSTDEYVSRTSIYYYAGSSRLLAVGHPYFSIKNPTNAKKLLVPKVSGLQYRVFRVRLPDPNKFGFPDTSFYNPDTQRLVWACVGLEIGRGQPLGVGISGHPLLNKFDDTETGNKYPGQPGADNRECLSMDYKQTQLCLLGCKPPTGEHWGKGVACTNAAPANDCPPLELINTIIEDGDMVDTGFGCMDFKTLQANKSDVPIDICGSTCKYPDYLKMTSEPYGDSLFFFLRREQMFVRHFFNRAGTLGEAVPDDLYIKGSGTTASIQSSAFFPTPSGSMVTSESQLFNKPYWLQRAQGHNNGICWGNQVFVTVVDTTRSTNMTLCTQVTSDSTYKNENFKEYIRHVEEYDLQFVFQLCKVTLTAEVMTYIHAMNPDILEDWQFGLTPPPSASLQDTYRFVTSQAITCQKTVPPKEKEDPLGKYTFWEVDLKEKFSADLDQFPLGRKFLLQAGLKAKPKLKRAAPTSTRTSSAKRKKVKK

[3] = biological target: T1, HPV35 L1/L2-capsid; test: ELISA on immobilized L1/L2-capsid, ascites 1:100

B1: monoclonal antibody 13B (antibody, V domains shown)
VH: DVQLQESGPGLVKPSQSLSLSCTVTGYSITSDSAWNWIRQFPGNKLEWMGYITFSGSTNYNPSLKSRLSITRDTSKNQFFLQLNSVTTEDTATYYCTGPFLDYWGQGTTLTVSS
VL: DVVMTQTPLSLPVSLGDQATISCRSSLSLVLSNRITYLQWYLQKPGQSPKLLIYKVSNRFSGVPDRFSGSGSGTDFTLKISRVEAEDLGVYFCSQSSHFPWTFGGGTKLEIKR
notes: Used as mouse ascites or as antibody purified from ascites; also called Mouse-Mouse hybridoma 13B (FERM BP-11304)
- binding result [1]: no binding (tested: ascites diluted 1:100)
- binding result [2]: binds

B2: monoclonal antibody 24B (antibody, V domains shown)
VH: EVQLQQSGTVLARPGASVKMSCKASVYSFPSNWMHWVKQRPGQGLEWIGAIYPGTGATRYNQKFKDKAKLTAVTSADTAYMELSSLTDEDSAVYYCTGYSLYWGQGTILTVSS
VL: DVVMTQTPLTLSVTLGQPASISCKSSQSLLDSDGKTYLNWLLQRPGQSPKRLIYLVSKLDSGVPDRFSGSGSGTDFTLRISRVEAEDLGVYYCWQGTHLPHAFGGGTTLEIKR
notes: Used as mouse ascites or as antibody purified from ascites; also called Mouse-Mouse hybridoma 24B (FERM BP-11305)
- binding result [3]: binds
